{"source": "paper PMC7613265", "about": "“Multi-scale ensemble properties of the Escherichia coli RNA degradosome” (Molecular microbiology, 2021)", "molecular_target": "the molecule itself", "test": "cryo-EM structure; single particle analysis of RNase E (1-529) at 10 uM without RNA, 8 mM CHAPSO; 7.8 A reconstruction, C1", "data": [{"protein": "RNase E catalytic domain (1-529) (domain or fragment, RNase E, E. coli, catalytic domain, residues 1-529; Studied without RNA; 8 mM CHAPSO added before grid freezing; also called RNase E catalytic core; RNase E (1-529); source: E. coli BL21(DE3), plasmid pRne529-N, purified (Ni chelating column, gel filtration)) not shown", "values": [{"measurement": "stoichiometry N", "result": 4}]}]}
